{
  "source": "patent US20170145069A1",
  "about": "(Novo Nordisk, published 2017)",
  "binders": {"B1": {"name": "GLP-1 derivative of Example 30 (Chem. 49), N^eps26,N^eps37-diacylated [Imp^7,Aib^8,Arg^34,Lys^37]-GLP-1-(7-37)-peptide (peptide)", "peptide": "XXEGTFTSDVSSYLEGQAAKEFIAWLVRGRK", "modifications": "Imp (imidazopropionyl, des-amino histidine) at 7; Aib at 8; eps-amino of Lys26 and Lys37 each acylated with 12-(4-carboxyphenoxy)dodecanoyl-gGlu-Ser-Gly-Ser-eps-Lys"}, "B2": {"name": "GLP-1 derivative of Example 26 (Chem. 45), N^eps26,N^eps37-diacylated [Imp^7,Aib^8,Arg^34,Lys^37]-GLP-1-(7-37)-peptide (peptide)", "peptide": "B1 peptide", "modifications": "Imp (imidazopropionyl, des-amino histidine) at 7; Aib at 8; eps-amino of Lys26 and Lys37 each acylated with 12-(4-carboxyphenoxy)dodecanoyl-gGlu-Ser-Ser-Gly-Ser-Ser-Gly"}, "B3": {"name": "GLP-1 derivative of Example 24 (Chem. 43), N^eps26,N^eps37-diacylated [Aib^8,Arg^34,Lys^37]-GLP-1-(7-37)-peptide (peptide)", "peptide": "B1 peptide with X1H", "modifications": "Aib at 8; eps-amino of Lys26 and Lys37 each acylated with 12-(4-carboxyphenoxy)dodecanoyl-gGlu-Ser-Ser-Gly-Ser-Ser-Gly"}, "B4": {"name": "Comparative compound of Example 2a: Compound of Example 17, Chem. 36, in WO 2011/080103 (peptide)", "peptide": "B1 peptide with X1H, W25H, R28Q", "modifications": "Aib at 8; eps-amino of Lys26 and Lys37 each acylated with 10-(4-carboxyphenoxy)decanoyl via the gGlu-2xOEG linker (as Example 2, only the linker differs)"}, "B5": {"name": "GLP-1 derivative of Example 31 (Chem. 50), N^eps26,N^eps37-diacylated [Aib^8,Arg^34,Lys^37]-GLP-1-(7-37)-peptide (peptide)", "peptide": "B1 peptide with X1H", "modifications": "Aib at 8; eps-amino of Lys26 and Lys37 each acylated with 11-(4-carboxyphenoxy)undecanoyl-gGlu-Ser-Ser-Gly-Ser-Ser-Gly"}},
  "note": "Numbering of substitutions follows the chain as printed. *1 amine or outer side, *2 acyl side, *3 side chain or, on linkers, in order; H or OH if unused. Where no end group is shown, it is not given here. Side-chain parts run from the residue outwards. [ ]: non-standard residue; d: D form. The star is where a group is joined. Dodecanoyl(12-OPh(4-COOH)) = O=C(O)c1ccc(OCCCCCCCCCCCC(=O)*)cc1; Undecanoyl(11-OPh(4-COOH)) = O=C(O)c1ccc(OCCCCCCCCCCC(=O)*)cc1; Decanoyl(10-(4-HOOC-PhO)) = O=C(O)c1ccc(OCCCCCCCCCC(=O)*)cc1; γGlu = O=C(O)[C@H](CCC(=O)[*:2])N[*:1]; 13‑carboxytridecanoyl = C14 diacid; AEEA = NCCOCCOCC(=O)O; Aib = CC(C)(N)C(=O)O",
  "data": [
    {"target": "T1, human GLP-1 receptor (human, UniProt P43220 24-463)", "test": "cell-based or functional assay", "units": {"In vitro potency (CRE-luciferase) low albumin EC50": "nM"}, "values": [
      {"binder": "H[Aib]EGTFTSDVSK([Ala-Ser-Ser-Ala-Ser-Ser-γGlu-Undecanoyl(11-OPh(4-COOH))])YLEGQAAK([Ala-Ser-Ser-Ala-Ser-Ser-γGlu-Undecanoyl(11-OPh(4-COOH))])EFIAWLVQGRG", "In vitro potency (CRE-luciferase) low albumin EC50": 0.015},
      {"binder": "H[Aib]EGTFTSDVSK([AEEA-AEEA-γGlu-13‑carboxytridecanoyl])YLEEQAVREFIAK([AEEA-AEEA-γGlu-13‑carboxytridecanoyl])LVRGRG", "note": "[Comparative compound of Example 6a: Compound of Example 74, Chem. 93, in WO 2012/062803]", "In vitro potency (CRE-luciferase) low albumin EC50": 0.062},
      {"binder": "HAEGTFTSDVSK([AEEA-AEEA-γGlu-Decanoyl(10-(4-HOOC-PhO))])YLEEQAAK([AEEA-AEEA-γGlu-Decanoyl(10-(4-HOOC-PhO))])EFIAWLVQGRG", "note": "[Comparative compound of Example 5a: Compound of Example 38, Chem. 57, in WO 2012/062803]", "In vitro potency (CRE-luciferase) low albumin EC50": 0.025},
      {"binder": "H[Aib]EGTFTSDVSK([Ser-Ser-Ser-Ser-Ser-Ser-γGlu-Undecanoyl(11-OPh(4-COOH))])YLEGQAAK([Ser-Ser-Ser-Ser-Ser-Ser-γGlu-Undecanoyl(11-OPh(4-COOH))])EFIAWLVQGRG", "In vitro potency (CRE-luciferase) low albumin EC50": 0.0083},
      {"binder": "H[Aib]EGTFTSDVSK([Gly-Ser-Ser-Gly-Ser-Ser-γGlu-Undecanoyl(11-OPh(4-COOH))])YLEGQAAK([Gly-Ser-Ser-Gly-Ser-Ser-γGlu-Undecanoyl(11-OPh(4-COOH))])EFIAWLVQGRG", "In vitro potency (CRE-luciferase) low albumin EC50": 0.0056},
      {"binder": "HAEGTFTSDVSSYLEGQAAK([AEEA-AEEA-γGlu-Decanoyl(10-(4-HOOC-PhO))])EFIAHLVQGRK([AEEA-AEEA-γGlu-Decanoyl(10-(4-HOOC-PhO))])", "note": "[Comparative compound of Example 3a: Compound of Example 33, Chem. 52, in WO 2011/080103]", "In vitro potency (CRE-luciferase) low albumin EC50": 0.124},
      {"binder": "H[Aib]EGTFTSDVSK([Gly-Ser-Ser-Gly-Ser-Ser-γGlu-Dodecanoyl(12-OPh(4-COOH))])YLEGQAAK([Gly-Ser-Ser-Gly-Ser-Ser-γGlu-Dodecanoyl(12-OPh(4-COOH))])EFIAWLVQGRG", "In vitro potency (CRE-luciferase) low albumin EC50": 0.0096},
      {"binder": "H[Aib]EGTFTSDVSK([AEEA-AEEA-γGlu-13‑carboxytridecanoyl])YLEGQAAK([AEEA-AEEA-γGlu-13‑carboxytridecanoyl])EFIAWLVQGRG", "note": "[Comparative compound of Example 22a: Compound of Example 141, Chem. 189, in WO 2012/062803]", "In vitro potency (CRE-luciferase) low albumin EC50": 0.174},
      {"binder": "B1", "In vitro potency (CRE-luciferase) low albumin EC50": 0.0094},
      {"binder": "B2", "In vitro potency (CRE-luciferase) low albumin EC50": 0.0058},
      {"binder": "B3", "In vitro potency (CRE-luciferase) low albumin EC50": 0.0052},
      {"binder": "B4", "In vitro potency (CRE-luciferase) low albumin EC50": 0.132},
      {"binder": "B5", "In vitro potency (CRE-luciferase) low albumin EC50": 0.0028}
    ]},
    {"target": "T1, human GLP-1 receptor", "test": "cell-based or functional assay", "remark": "another data set of the same source", "units": {"In vitro potency (AlphaScreen cAMP; membranes) EC50": "nM"}, "values": [
      {"binder": "H[Aib]EGTFTSDVSK([Ala-Ser-Ser-Ala-Ser-Ser-γGlu-Undecanoyl(11-OPh(4-COOH))])YLEGQAAK([Ala-Ser-Ser-Ala-Ser-Ser-γGlu-Undecanoyl(11-OPh(4-COOH))])EFIAWLVQGRG", "In vitro potency (AlphaScreen cAMP; membranes) EC50": 0.183},
      {"binder": "H[Aib]EGTFTSDVSK([AEEA-AEEA-γGlu-13‑carboxytridecanoyl])YLEEQAVREFIAK([AEEA-AEEA-γGlu-13‑carboxytridecanoyl])LVRGRG", "note": "[Comparative compound of Example 6a: Compound of Example 74, Chem. 93, in WO 2012/062803]", "In vitro potency (AlphaScreen cAMP; membranes) EC50": 0.062},
      {"binder": "HAEGTFTSDVSK([AEEA-AEEA-γGlu-Decanoyl(10-(4-HOOC-PhO))])YLEEQAAK([AEEA-AEEA-γGlu-Decanoyl(10-(4-HOOC-PhO))])EFIAWLVQGRG", "note": "[Comparative compound of Example 5a: Compound of Example 38, Chem. 57, in WO 2012/062803]", "In vitro potency (AlphaScreen cAMP; membranes) EC50": 0.224},
      {"binder": "H[Aib]EGTFTSDVSK([Ser-Ser-Ser-Ser-Ser-Ser-γGlu-Undecanoyl(11-OPh(4-COOH))])YLEGQAAK([Ser-Ser-Ser-Ser-Ser-Ser-γGlu-Undecanoyl(11-OPh(4-COOH))])EFIAWLVQGRG", "In vitro potency (AlphaScreen cAMP; membranes) EC50": 0.146},
      {"binder": "HAEGTFTSDVSSYLEGQAAK([AEEA-AEEA-γGlu-Decanoyl(10-(4-HOOC-PhO))])EFIAHLVQGRK([AEEA-AEEA-γGlu-Decanoyl(10-(4-HOOC-PhO))])", "note": "[Comparative compound of Example 3a: Compound of Example 33, Chem. 52, in WO 2011/080103]", "In vitro potency (AlphaScreen cAMP; membranes) EC50": 0.506},
      {"binder": "H[Aib]EGTFTSDVSK([Gly-Ser-Ser-Gly-Ser-Ser-γGlu-Dodecanoyl(12-OPh(4-COOH))])YLEGQAAK([Gly-Ser-Ser-Gly-Ser-Ser-γGlu-Dodecanoyl(12-OPh(4-COOH))])EFIAWLVQGRG", "In vitro potency (AlphaScreen cAMP; membranes) EC50": 0.314},
      {"binder": "H[Aib]EGTFTSDVSK([AEEA-AEEA-γGlu-13‑carboxytridecanoyl])YLEGQAAK([AEEA-AEEA-γGlu-13‑carboxytridecanoyl])EFIAWLVQGRG", "note": "[Comparative compound of Example 22a: Compound of Example 141, Chem. 189, in WO 2012/062803]", "In vitro potency (AlphaScreen cAMP; membranes) EC50": 1.14},
      {"binder": "B2", "In vitro potency (AlphaScreen cAMP; membranes) EC50": 0.446},
      {"binder": "B3", "In vitro potency (AlphaScreen cAMP; membranes) EC50": 0.166},
      {"binder": "B4", "In vitro potency (AlphaScreen cAMP; membranes) EC50": 0.582},
      {"binder": "B5", "In vitro potency (AlphaScreen cAMP; membranes) EC50": 0.027}
    ]},
    {"target": "T1, human GLP-1 receptor", "test": "SPA, displacement of 125I-GLP-1(7-36)NH2, BHK membranes, 0.001% HSA", "procedure": "Test compounds, membranes, SPA-particles and [¹²⁵I] ]-GLP-1(7-36)NH₂ were diluted in assay buffer. 50 ul (micro liter) buffer (“low albumin” experiment containing 0.001% HSA) was added to Optiplate, and 25 ul of test compounds were added. 5-10 μg membrane protein/sample was added (50 μl) corresponding to 0.1-0.2 mg protein/ml (to be preferably optimised for each membrane preparation). SPA-particles (Wheatgerm agglutinin SPA beads, Perkin Elmer, #RPNQ0001) were added in an amount of 0.5 mg/well (50 μl). The incubation was started with [¹²⁵I]-GLP-1]-(7-36)NH₂ (final concentration 0.06 nM corresponding to 49.880 DPM, 25 μl). The plates were sealed with PlateSealer and incubated for 120 minutes at 30° C. while shaking. The plates were centrifuged (1500 rpm, 10 min) and counted in Topcounter.\nThe IC₅₀ value was read from the curve as the concentration which displaces 50% of ¹²⁵I-GLP-1 from the receptor.", "units": {"IC50": "nM"}, "values": [
      {"binder": "H[Aib]EGTFTSDVSK([Ala-Ser-Ser-Ala-Ser-Ser-γGlu-Undecanoyl(11-OPh(4-COOH))])YLEGQAAK([Ala-Ser-Ser-Ala-Ser-Ser-γGlu-Undecanoyl(11-OPh(4-COOH))])EFIAWLVQGRG", "IC50": 0.5},
      {"binder": "H[Aib]EGTFTSDVSK([AEEA-AEEA-γGlu-13‑carboxytridecanoyl])YLEEQAVREFIAK([AEEA-AEEA-γGlu-13‑carboxytridecanoyl])LVRGRG", "note": "[Comparative compound of Example 6a: Compound of Example 74, Chem. 93, in WO 2012/062803]", "IC50": 0.8},
      {"binder": "HAEGTFTSDVSK([AEEA-AEEA-γGlu-Decanoyl(10-(4-HOOC-PhO))])YLEEQAAK([AEEA-AEEA-γGlu-Decanoyl(10-(4-HOOC-PhO))])EFIAWLVQGRG", "note": "[Comparative compound of Example 5a: Compound of Example 38, Chem. 57, in WO 2012/062803]", "IC50": 5.8},
      {"binder": "H[Aib]EGTFTSDVSK([Ser-Ser-Ser-Ser-Ser-Ser-γGlu-Undecanoyl(11-OPh(4-COOH))])YLEGQAAK([Ser-Ser-Ser-Ser-Ser-Ser-γGlu-Undecanoyl(11-OPh(4-COOH))])EFIAWLVQGRG", "IC50": 0.54},
      {"binder": "H[Aib]EGTFTSDVSK([Gly-Ser-Ser-Gly-Ser-Ser-γGlu-Undecanoyl(11-OPh(4-COOH))])YLEGQAAK([Gly-Ser-Ser-Gly-Ser-Ser-γGlu-Undecanoyl(11-OPh(4-COOH))])EFIAWLVQGRG", "IC50": 0.37},
      {"binder": "HAEGTFTSDVSSYLEGQAAK([AEEA-AEEA-γGlu-Decanoyl(10-(4-HOOC-PhO))])EFIAHLVQGRK([AEEA-AEEA-γGlu-Decanoyl(10-(4-HOOC-PhO))])", "note": "[Comparative compound of Example 3a: Compound of Example 33, Chem. 52, in WO 2011/080103]", "IC50": 51.5},
      {"binder": "H[Aib]EGTFTSDVSK([Gly-Ser-Ser-Gly-Ser-Ser-γGlu-Dodecanoyl(12-OPh(4-COOH))])YLEGQAAK([Gly-Ser-Ser-Gly-Ser-Ser-γGlu-Dodecanoyl(12-OPh(4-COOH))])EFIAWLVQGRG", "IC50": 0.84},
      {"binder": "H[Aib]EGTFTSDVSK([AEEA-AEEA-γGlu-13‑carboxytridecanoyl])YLEGQAAK([AEEA-AEEA-γGlu-13‑carboxytridecanoyl])EFIAWLVQGRG", "note": "[Comparative compound of Example 22a: Compound of Example 141, Chem. 189, in WO 2012/062803]", "IC50": 48.4},
      {"binder": "B1", "IC50": 0.18},
      {"binder": "B2", "IC50": 0.53},
      {"binder": "B3", "IC50": 0.19},
      {"binder": "B4", "IC50": 44.5},
      {"binder": "B5", "IC50": 0.17}
    ]}
  ]
}
